According to patent US10889629B2, “Transfected T-cells and T-cell receptors for use in immunotherapy against cancers” (IMMATICS BIOTECHNOLOGIES GMBH, priority 2016, dated 2021):

Tests used:
[1] = tested on: HLA-A*0201-positive PBMCs and HLA-A*0201/Kb transgenic mice; settings: in vitro from PBMCs and in HLA-A*0201/Kb transgenic mice; cited from earlier work
[2] = molecular target: HLA-A*0201 molecule (Homo sapiens, UniProt P04439, D140Y/D185E/D98H/E176V/E277Q/G131W/G231S/I119V/I121R/I166T/I218V/L300P/L318F/N151K/N90K/P208A/P217A/Q86G/Q94H/R138H/R169H/T345S); settings: cited from earlier work
[3] = tested on: HLA-A*02 positive cell types from healthy tissues; assay: Safety: IFN-γ release upon co-culture with primary and iPSC-derived cell types from healthy tissues; assay type: cell-based, human; settings: E:T ratio 1:1, 20 h, ELISA, normalized
Excerpt: FIG. 13 T cells transfected with RNA coding for TCR R7P1 D5, R10P2G12, R20P1H7, mock or the control TCR 1G4 (SEQ ID NO:X) were co-cultured with different primary human healthy tissue cells (see table 13 for abbreviations), the target negative tumor cell line MCF-7 and the MAGEA4- and NY-ESO1-positive cell lines A-375 and NCI-H1755. TCRs R7P1D5, R10P2G12, R20P1H7 and 1G4 expression in T cells was achieved by electroporation using an RNA vector. […] E:T ratio 1:1, 20,000 cells each, mean of IFN-γ release after 20 h from replicates is shown as measured by ELISA. Error bars indicate standard deviations. Results were normalized by subtraction of IFN-γ release from TCR-transfected T cells only and IFN-γ release due to co-culture of Target cells and T cells not expressing TCR of interest.
(§1) TCRs of interest were expressed in human T cells via RNA electroporation and the T cells were assessed for IFN-γ release after co-culture with different target cells, such as T2 cells loaded with different peptides as well as tumor cell lines and primary cells from healthy tissues. T-cell activation data are shown in absolute IFN-γ levels or a normalized way as indicated below.
(§2) Efficacy of CD8+ T cells expressing TCRs R7P1 D5, R10P2G12 and R20P1H7 was determined by T cell activation studies (IFN-γ release) using different tumor cell lines as target cells. The characterization of the safety profile of TCRs of interest was approached by testing the potential activation of TCR-expressing T cells upon co-culture with isolated primary cell types from healthy tissues and induced pluripotent stem cell (iPSC)-derived cell types from HLA-A*02-positive donors (Table 13). Cell types were selected in a manner to cover most of the critical organs like e.g. brain, heart and liver and different cell types as epithelium, endothelium or smooth muscle. Tumor cell lines were analyzed side-by-side as positive and negative controls.
Normalization Method for IFNγ Release: Meannorm(TCRoi;co)=[mean(TCRoi;co)−mean(TCRoi;effector only)]−[mean(mock;co)−mean(mock;effector only)]
The respective CVnorm was calculated: CVnorm(TCRoi;co)=[CV(TCRoi;co)^2+CV(TCRoi;effector only)^2+CV(mock;co)^2+CV(mock;effector only)^2]^[½] TCRoi=effector cells expressing TCR of interest Mock=effector cells without exogenous TCR expression Co=effector cells co-cultured with target cells Effector only=effector cells not co-cultured Mean(norm)=mean IFNγ release (normalized) CV(norm)=coefficient of variation (normalized) Results: […]

[4] = tested on: MHC/NYESO1-001 complex; assay: Activation of 1G4-transformed CD8+ T-cells by NYESO1-001-loaded target cells; assay type: cell-based, human
[5] = tested on: NYESO1 expressing HLA-A*02 positive tumor cell lines; assay: IFN-γ release of 1G4-expressing CD8+ T cells with NYESO1 expressing tumor cell lines; assay type: cell-based, human; settings: Example 6
Description: as §1, §2

## YLLEHVVRL (listed as Homo sapiens) [p286-1Y2L9L]
[1]
  induction of peptide-specific CTLs: showed the capability to induce specific CTLs
[2]
  binding affinity and stability towards HLA-A*0201 molecule: potent binding affinity and stability

## KVLEHVVRV (listed as Homo sapiens) [MAG-003]
[1]
  induction of peptide-specific CTLs: elicits peptide-specific CTLs
[2]
  binding affinity and stability towards HLA-A*0201 molecule: potent binding affinity and stability

B1: 1G4: control TCR known to bind specifically to MHC/NYESO1-001 complex; alpha and beta chains SEQ ID NO:89 and 90 (protein, listed as Homo sapiens)
alpha: METLLGLLILWLQLQWVSSKQEVTQIPAALSVPEGENLVLNCSFTDSAIYNLQWFRQDPGKGLTSLLLIQSSQREQTSGRLNASLDKSSGRSTLYIAASQPGDSATYLCAVRPTSGGSYIPTFGRGTSLIVHPYIQNPDPAVYQLRDSKSSDKSVCLFTDFDSQTNVSQSKDSDVYITDKTVLDMRSMDFKSNSAVAWSNKSDFACANAFNNSIIPEDTFFPSPESSCDVKLVEKSFETDTNLNFQNLSVIGFRILLLKVAGFNLLMTLRLWSS
beta: MSIGLLCCAALSLLWAGPVNAGVTQTPKFQVLKTGQSMTLQCAQDMNHEYMSWYRQDPGMGLRLIHYSVGAGITDQGEVPNGYNVSRSTTEDFPLRLLSAAPSQTSVYFCASSYVGNTGELFFGEGSRLTVLEDLKNVFPPEVAVFEPSEAEISHTQKATLVCLATGFYPDHVELSWWVNGKEVHSGVSTDPQPLKEQPALNDSRYCLSSRLRVSATFWQNPRNHFRCQVQFYGLSENDEWTQDRAKPVTQIVSAEAWGRADCGFTSESYQQGVLSATILYEILLGKATLYAVLVSALVLMAMVKRKDSRG
[3]
  T-cell activation (IFN-γ release) by healthy tissue cells: not towards the indicated panel of healthy tissue cells
[4]
  T-cell activation: readily activated
[5]
  T-cell reactivity (IFN-γ release): reactive
